Values joined by “and” are separate entries in the source; they are usually repeats but may differ in a detail not shown here. Identical values can stand only once. No end group written: not given here.
T1: MPP5 PDZ (human, UniProt Q8N3R9 238-336)
T1 construct: PDZ domain of human MPP5 (PALS1), residues 238-336, numbering of the full-length human protein; […]; Labelled on amines with RED-NHS dye for MST; also called PALS1 PDZ; not shown: GST, N-terminal, cleaved
T1 sequence (looked up): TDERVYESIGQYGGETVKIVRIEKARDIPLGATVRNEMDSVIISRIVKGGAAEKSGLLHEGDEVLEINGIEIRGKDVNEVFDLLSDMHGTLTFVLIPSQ

T2: MLLT4 PDZ (human, UniProt P55196 1002-1095)
T2 construct: PDZ domain of human MLLT4 (Afadin); the residues named in the structure (1014-1022, 1071) fit 1002-1095; also called Afadin PDZ; not shown: His tag, N-terminal, cleaved; MBP, N-terminal, cleaved
T2 sequence (looked up): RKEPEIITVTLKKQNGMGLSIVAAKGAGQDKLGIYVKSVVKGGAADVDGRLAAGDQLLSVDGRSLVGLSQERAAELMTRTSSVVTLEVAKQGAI

T3: LNX2 PDZ2 (human, UniProt Q8N448 334-426)
T3 construct: second PDZ domain of human LNX2, residues 334-426, numbering of the full-length human protein; […]; Labelled on amines with RED-NHS dye for MST; also called LNX2-2; not shown: His tag, N-terminal, cleaved
T3 sequence (looked up): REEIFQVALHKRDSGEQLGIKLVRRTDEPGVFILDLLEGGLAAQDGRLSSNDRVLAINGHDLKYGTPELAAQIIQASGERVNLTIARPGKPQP

B1: MLLT4-PBM: MLLT4-PDZ prepared with an excess of protein E PBM peptide (protein)
chain: T2 sequence (looked up)
modifications: left off: His tag, N-terminal, cleaved | MBP, N-terminal, cleaved
notes: MLLT4-PDZ prepared with an excess of protein E PBM peptide
B2: ZO-1 PDZ2 (domain or fragment, human, UniProt Q07157 184-264, looked up)
chain: PTKVTLVKSRKNEEYGLRLASHIFVKEISQDSLAARDGNIQEGDVVLKINGTVTENMSLTDAKTLIERSKGKLKMVVQRDE
notes: second PDZ domain of human ZO-1 (TJP1), residues 184-264, numbering of the full-length human protein; […]; Labelled on amines with RED-NHS dye for MST; also called TJP1 PDZ2; ZO-1-2
B3: ZO-1: PDZ2 domain of ZO-1, residues 184-264, at 1 mg/mL (protein)
chain: B2 chain
modifications: left off: His tag, N-terminal, state not stated
notes: PDZ2 domain of ZO-1, residues 184-264, at 1 mg/mL
B4: C-terminal SARS-CoV-2-E PBM peptide (peptide)
peptide: NLNSSRVPDLLV
notes: also called SARS-CoV-2 WT; SARS-CoV-2 peptide E

Legend:
GST-PDZ PARD3 = assay: GST pull-down, GST-PDZ PARD3; type: binding, human; details: HEK293 cell lysates; 2 h at 4°C with glutathione resins; anti-GFP Western blot
Description: (§1) To investigate whether the five PDZ domains can interact with the full-length E protein and in a PBM-dependent manner, glutathione S-transferase (GST) pull-down assays were performed with the purified GST-tagged PDZ domains of ZO-1, LNX2, PARD3, MLLT4, and MPP5 and the lysates of HEK293 cells overexpressing constructs of GFP alone, GFP-tagged wild-type full-length E protein (GFP-E-WT), GFP-tagged full-length E protein with the PBM mutated with glycines (GFP-E-GGGG), and GFP-tagged cytoplasmic tail of protein E (last 12 residues; GFP-E last 12 aa) designated 1, 2, 3, and 4 in Figure 2 (Figure 2A). The GFP-tagged construct expression was assessed by examining the fluorescence emitted by the GFP by microscopy and by Western blot on the cell lysates using anti-GFP antibody (Figure 2B). GST alone was used as a negative control. We confirmed by using Ponceau S staining that equal amounts of GST-tagged protein constructs were bound to the GST resin (Figure 2C).
(§2) Glutathione S-transferase alone and its fusion with PDZ ZO1, PDZ LNX2, PDZ MLLT4, PDZ MPP5, and PDZ PARD3 are used as baits and were immobilized on glutathione beads and tested for their ability to pull down GFP alone, GFP-E-WT, GFP-E-GGGG, and GFP-E last 12 aa by Western blot using the anti-GFP antibody. After washing, identical amounts of beads were analyzed for the presence of GFP-tagged proteins. […]

GST-PDZ MLLT4 = assay: GST pull-down, GST-PDZ MLLT4; type: binding, human; details: HEK293 cell lysates; 2 h at 4°C with glutathione resins; anti-GFP Western blot
Description: as §1, §2

GST alone = assay: GST pull-down, GST alone (negative control); type: binding; details: GST alone as bait; HEK293 cell lysates; anti-GFP Western blot
Description: as §1, §2

GST-PDZ MPP5 = assay: GST pull-down, GST-PDZ MPP5; type: binding, human; details: HEK293 cell lysates; 2 h at 4°C with glutathione resins; anti-GFP Western blot
Description: as §1, §2

GST-PDZ LNX2 = assay: GST pull-down, GST-PDZ LNX2; type: binding, human; details: HEK293 cell lysates; 2 h at 4°C with glutathione resins; anti-GFP Western blot
Description: as §1, §2

GST-PDZ ZO1 = assay: GST pull-down, GST-PDZ ZO1; type: binding, human; details: HEK293 cell lysates; 2 h at 4°C with glutathione resins; anti-GFP Western blot
Description: as §1, §2

[1] = Analytical ultracentrifugation; type: physicochemical; details: 1 mg/mL, 20°C; for Oligomeric state in solution: AUC; for Oligomeric state in solution / Frictional ratio f/f0 (average) / Molecular weight estimated by analytical ultracentrifugation (AUC) / Peak proportion: pH 7.5; for Frictional ratio f/f0 (average): average over peaks; for Sedimentation coefficient: Tris 50 mM pH 7.5, NaCl 150 mM, TCEP 0.5 mM, 42,000 rpm, MLLT4-PDZ with excess of E PBM peptide
Description: ZO-1-PDZ2 and MLLT4-PDZ were prepared at 1 mg/mL. MLLT4-PDZ was prepared with an excess of protein E PBM peptide. Samples were prepared in Tris 50 mM pH 7.5, NaCl 150 mM, and TCEP 0.5 mM. A sample of 400 μl was loaded into 1.2-cm double-sector cells between two sapphire windows. […] Sedimentation profiles were monitored over time by absorbance measurement at 280 nm and by interferometry. The data were analyzed using the continuous size distribution model c(s) of the Sedfit 16.36 software. All distributions were calculated with a floating frictional ratio f/f0 and a maximum entropy regularization procedure with a confidence level of 0.68. The buffer viscosity (η = 0.01031 Poise), the density (ρ = 1.0059), and the partial specific volume of 0.746 for MLLT4 and 0.736 for Z0-1 were estimated at 20°C from the amino acid sequences at 20°C using the software SEDTERP 3.0.3.^3

[2] = target: the molecule itself; assay: AUC; sedimentation velocity, ZO-1-PDZ2 at 1 mg/mL; Tris 50 mM pH 7.5, NaCl 150 mM, TCEP 0.5 mM; 20°C, 42,000 rpm
MPP5 PDZ = target: T1, MPP5 PDZ; assay: MST; […]; PBS tween 20 0.05%; room temperature; […]; duplicate; details: both partners purified
MLLT4 PDZ = target: T2, MLLT4 PDZ; assay: as above; details: both partners purified
ZO-1 PDZ2 = target: B2; assay: as above; details: both partners purified
LNX2 PDZ2 = target: T3, LNX2 PDZ2; assay: as above; details: both partners purified
PARD3 PDZ3 = target: T4, PARD3 PDZ3 (human, UniProt Q8TEW0 582-685); assay: as above; details: both partners purified
T4 construct: third PDZ domain of human PARD3, residues 582-685, numbering of the full-length human protein; […]; Labelled on amines with RED-NHS dye for MST; also called PARDD3-3; not shown: His tag, N-terminal, cleaved
T4 sequence (Q8TEW0 582-685): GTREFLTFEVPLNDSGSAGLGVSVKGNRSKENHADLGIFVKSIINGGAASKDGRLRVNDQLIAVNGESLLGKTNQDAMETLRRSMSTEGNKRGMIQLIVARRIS

Molecule	Oligomeric state in solution [1]	Frictional ratio f/f0 (average) [1]	Sedimentation coefficient ([1]; peak 1)	Molecular weight estimated by analytical ultracentrifugation (AUC) ([1]; peak 1)	Peak proportion ([1]; peak 1)	Sedimentation coefficient ([1]; peak 2)	Molecular weight estimated by analytical ultracentrifugation (AUC) ([1]; peak 2)	Peak proportion ([1]; peak 2)	Sedimentation coefficient ([1]; peak 3)	Molecular weight estimated by analytical ultracentrifugation (AUC) ([1]; peak 3)	other results
GFP-E last 12 aa (NLNSSRVPDLLV; also: fused to GFP, attachment end not given here)											GFP-tagged protein in bound fraction (GST-PDZ PARD3): detected in all interactions with GST-PDZ domains; GFP-tagged protein in bound fraction (GST-PDZ MLLT4): detected in all interactions with GST-PDZ domains; GFP-tagged protein in bound fraction (GST alone): not detected; GFP-tagged protein in bound fraction (GST-PDZ MPP5): detected in all interactions with GST-PDZ domains; GFP-tagged protein in bound fraction (GST-PDZ LNX2): detected in all interactions with GST-PDZ domains; GFP-tagged protein in bound fraction (GST-PDZ ZO1): detected in all interactions with GST-PDZ domains
B1	mainly monomeric in solution	1.2	0.5 S	2.8 kDa	25%	1.4 S	12 kDa	65%	2.3 S	26 kDa	Peak proportion ([1]; peak 3): 10%
B2											stoichiometry N [2]: 2 and ~4
B3	one dimeric form and one higher oligomeric state possibly compatible with a tetramer in solution	1.4	2.1 S	26 kDa	49%	2.8 S	40 kDa	49%	3.7 S	60 kDa	
B4											Kd (MPP5 PDZ): 30 µM; Kd (MLLT4 PDZ): 569 µM; Kd (ZO-1 PDZ2): 15 µM; Kd (LNX2 PDZ2): 289 µM; Kd (PARD3 PDZ3): 341 µM

From article PMC8909127 (Frontiers in Microbiology, 2022)
